Data on 20 sequences can be found in a protein production outcome set (Wang et al. 2014).

A short description of the series: label from the status in PepcDB records.
Take “MEALGPGGDRASPASSTSSLDLWHLSMRADSAYSSFSAASGGPEPRTQSPGTDLLPYLDWDYVRVVWGGPGPAPPDAALCTSPRPRPAVAARSGPQPTEVPGTPGPLNRQATPLLYALAAEAEAAAQAAEPPSPPASRAAYRQRLQGAQRRVLRETSFQRKELRMSLPARLRPTVPARPPATHPRSASLSHPGGEGEPARSRAPAPGTAGRGPLANQQRKWCFSEPGKLDRVGRGGGPARECLGEACSSSGLPGPEPLEFQHPALAKFEDHEVGWLPETQPQGSMNLDSGSLKLGDAFRPASRSRSASGEVLGSWGGSGGTIPIVQAVPQGAETPRPLFQTKLSRFLPQKEAAVMYPAELPQSSPADSEQRVSETCIVPAWLPSLPDEVFLEEAPLVRMRSPPDPHASQGPPASVHASDQPYGTGLGQRTGQVTVPTEYPLHECPGTAGADDCWQGVNGSVGISRPTSHTPTGTANDNIPTIDPTGLTTNPPTAAESDLLKPVPADALGLSGNDTPGPSHNTALARGTGQPGSRPTWPSQCLEELVQELARLDPSLCDPLASQPSPEPPLGLLDGLIPLAEVRAAMRPACGEAGEEAASTFEPGSYQFSFTQLLPAPREETRLENPATHPVLDQPCGQGLPAPNNSIQGKKVELAARLQKMLQDLHTEQERLQGEAQAWARRQAALEAAVRQACAPQELERFSRFMADLERVLGLLLLLGSRLARVRRALARAASDSDPDEQASLLQRLRLLQRQEEDAKELKEHVARRERAVREVLVRALPVEELRVYCALLAGKAAVLAQQRNLDERIRLLQDQLDAIRDDLGHHAPSPSPARPPGTCPPVQPPFPLLLT”: the protein production result is reported as “failed”.

Consider “MEALVVVHKVASEGGRRPKTTVSDESGSHSREKGKSFQVKDSPENNYATGKVDSLERSHFSSSYNQERRQSEEQRR”, for which the protein production entry is “failed”.

For the sequence “MEASRFIEIGLLTRPHGLKGEVCVDYYADSPFLLEGTVYLKAGRAAPRPVKVQSMRMHKGRPLVIFEGVNDRTAAELLRGHVMLVPEDTLPELDEDEVYLFELEGISVVIDESGEHLGVIERIDTDAYQEIWVIRTPQGKEVLFPAAAPFVLDIDLDSRTARIAPPPGLLDIYLSD”, the protein production result is given as “failed”.

Turning to “MEATGLITEYNPFHNGHLYHLKKAQELTKADVTIVLMSGNWVQRGLPAITDKWKRAQAAIDAGADLVFELPFYYAVQAGEIFAQGAVRLLSDLQVSSIICGSEHADIDFINLAAHEPDISGNSNFDKKNRTFASNYAAALEEKTGFYLENANDILAFSYAKAILNQNLTEKIKLRTISRVSADYHDQFLNDGEIASATAIRKALSEGQNVDSYTP”, the protein production entry is reported as “failed”.

With “MEATNLPQPSAPADLGALQRPSYFRRLGPFDWLFAALLALGAGYAFSRYGAYMDGYERGILVAAVPAFAWLGWTWKPVRTLMIGLAVLSLFAIAQYSGPNGPELARADRVFFLKYFLASQSAILWMSALIFLSTLFFWAGLAARWPAGGAIGSKLCWAAVVLGLTGMLVRWYESYLVGADIGHIPISNLYEVFILFTLITSLFYLYYEQRYRTRALGPFVMLVVSAAVGFLLWYTVSRGAQEIQPLVPALQSWWMKIHVPANFIGYGTFALAAMVGAAYLLKEHGVLADRLPSLEVLDDVMYKAITVGFAFFTIATILGALWAADAWGGYWSWDPKETWALIVWLNYAAWLHMRLMKGLRGRMAAWWALVGLLVTTFAFLGVNMFLSGLHSYGEL”, the protein production entry is “failed”.

For “MEAVDLAFANYAERFARSCKGDGWRRLVERAIRLYLTPVLGKKALPAINRTDVVSVFDNMPADQVANRRNVFAVLRRLFRWAVSRGDLDRSLEHHHHHH”, the protein production entry is “failed”.

On to “MEAVTGYVKRKDLGRAVVQTDLGNPKAWEIRLTILTDEVLSENQKLATQKIDPSCAVDVSIGHGASDSPRGSSLAINEVRCECSSGISESDLETRGLAMIIDFVMRVASLERSVMNKRDLRFARVEKRFPKGKTKLKA”, for which the protein production result is given as “failed”.

Take “MEAVVLPWQIFGVRELPVERGVTMKGPRLFRAPGHVPTGLKCHPDQEHMIYPLGCTVLIQAINTKEQNFLQGHGNNVSCLAISRSGEYIASGQVTFMGFKADIILWDYKNRELLARLSLHKGKIEALAFSPNDLYLVSLGGPDDGSVVVWSIAKRDAICGSPAAGLNVGNATNVIFSRCRDEMFMTAGNGTIRVWELDLPNRKIWPTECQTGQLKRIVMSIGVDDDDSFFYLGTTTGDILKMNPRTKLLTDVGPAKDKFSLGVSAIRCLKMGGLLVGSGAGLLVFCKSPGYKPIKKIQLQGGITSITLRGEGHQFLVGTEESHIYRVSFTDFKETLIATCHFDAVKDIVFPFGTAELFATCAKKDIRVWHTSSNRELLRITVPNMTCHGIDFMRDGKSIISAWNDGKIRAFAPETGRLMYVINNAHRIGVTAIATTSDCKRVISGGGEGEVRVWQIGCQTQKLEEALKEHKSSVSCIRVKRNNEECVTASTDGTCIIWDLVRLRRNQMILANTLFQCVCYHPEEFQIITSGTDRKIAYWEVFDGTVIRELEGSLSGSINGMDITQEGVHFVTGGNDHLVKVWDYNEGEVTHVGVGHSGNITRIRISPGNQYIVSVSADGAILRWKYPYTS”: the protein production entry is on record as “failed”.

Regarding “MEAVVVEREAKGMKEIAIQEKDLTLQWRGNTGKLVKVRLKNTRAMEMWYNKQITEENIQEITTLNIIKNGKSLALEVYPEKSIYVKPNLGRINVPVFFIKTPINRGVFEEIFGETLKA”, the protein production result is recorded as “not failed”.

For the sequence “MECRECTNRNKLDFEFTMAFQPIVNLETQTIFAHEALVRGLNNESAQAIFQHINDSNRYLFDQSCRTTAIRLAAELHIPCFLSINFLPNAVYEPERCIRTTLEAAETYGFPIEQIIFEITESEQITDLVHLRKIVEYYRARGFKTAIDDFGAGYAGLNLLSEIQTDLIKLDMALIRGIDQDKVRQAIVKGVLQVAGELSSLVIAEGIETQAELTTLQGLGINLFQGFYFAKPTFQSLAQIPSDRFVNVA”, the protein production result is “failed”.

As for “MEDDVTTTERLPAPPLDTASKRVGFISLGCPKALVDSERILTQLRAEGYEVAPSYEGADAVIVNTCGFITPAVEESLSAIGEALDATGKVIVTGCLGERPEKIMERHPKVAAITGSEAVDDVMGHVRELLPIDQGAFTGLLPVAAPGMRAGVETPQRENTRHGDVFAPSVKLTPRHYAYVKVAEGCNHTCAFCIIPKLRGLQVSRDAGAVLYEAYRLIAGGTKELMIIAQDTSAYGVDLRYRESEFQGEQVRAHLTDLAVKLGEMGAWVRMHYVYPYPHVDRVVELMAQGKVLPYLDIPLQHASPKILKLMRRPGAGKQLDTIRRWREICPELVIRSTFIVGFPGETEEDFQELLQFLEDARLDRVGAFPYSDIEEADANALPGAVPEEVKQERLARFMEVAQRISTEKLSEKVGRVMDVIIDEFNDDEDDQPGTRLIGRTKGDAPGIDGQVYLYAGDFAGLVKIGDIVRARIEDSDEYDLFGEVIEKPEWKPNVPQLGHFGKH”, the protein production result is reported as “failed”.

As to “MEDKTLGLLLDVVGELFSDEISIAVSNTKEYIYYRPSKRIDLKISAGDPIKEGTIAHKAMVTNQKTSEFMNRDVFGIPYHGMAVPFSNNGKLEGCVTAIYPALTDGKSVVTLKTTDGWIPVPFSKVMYLEAKDKKTYVNAEELTGTHKYSLQEFEYLLPKDSFIRCHRSFIVNVNHIKAIYPDTHSTFLLSMDNGERVPVSQSYASYFRKLLGF”, the protein production result is “not failed”.

On to “MEDLLPTLPSLDHRDALPNALASPVLPAGQSDAQLVRTWLDTKYAAGLGIRASTRAQYALEAHRLLWYAHALGRPLASWQVADANGYLAFLADPPAHAVGDGRVRQDSPAWRPLRGPLSEASRRQTATIVGGLFEWLVGVEALRVNPFQAVPRARSARGPGSQRRFLEAEQLAAVFDAVEARPAPTLWAQLHKARDRLLLALLFHTGLRASEVTALTWPDFERQRGRHGDFWTVRIREAKGGSDQLVPCDNVMAELARFRQLVGLSPEPRATDTMAVVPAMAGGRQRLAPLTDTLALQRRLSRPVRTRQGLYTIVRQVFEAAAVRLEASGYAEGAANLRAASTHWLRHSHATHLLRAGVPVTDVQRTLRHRDINTTRRYTHEALEDVARSIGGKLPAVLEHHHHHH”, for which the protein production entry is on record as “failed”.

For “MEDLVTAPTPLDKRWLTEAVRLREEHAGPLEDQEANRHARQLGGDLATRIETRALFLAERDDMTGALRHWKQGARLALLALLLMAVLSGTGLGLAALGDGQRPVNVFWALGSLLGLNLLMLLGWGMGFALSGEHGAGLGRLWLWLSERFARDAKAAHLAPALLVLLQRQRLNRWLLGLLVHGLWLLAMLTALGMLLVLLATRRYGFVWETTLLAADPFIHLTQALGALPSLLGFAVPDEAMIRASGDSLPALDVARQAWASWLLGVVLVYGLLPRLLLAGLCLWRWRQGRERLTLDLGLPGYAQLREALMPRSERIGVQDAAPQALPQFAAGQLESGSSGALLVGLELDDQRPWPPALPKSVTDAGVLDSRESRNRLLEQLSRFPPARLAIACDPRRSPDRGSLALLAELARNAGATRIWLLQAAPGQPLDAERLGDWHEALDRLGLQHADTSPLTWLEHGHD”, the protein production result was “failed”.

“MEDWWFSWLSRTNLEPSLIHEYGLSFSQNELEHEDISYFDHEFLQSMGISIAKHRLEILKLARRDRKNSPPLTSRSISRVVTAIKKTRKCLSDHVRAWIRREEESASSRALVLVPKKTSNGIGKWRGGFLKRNKRSVMPSNGNGGLEKQERLLLTNGTPCRIDSFSSPMVFDYSFKDEKLYAQDTYFEDIKWDSMFQNLKPT”: the protein production entry is listed as “failed”.

For “MEEERRDDYKFLRIQDAFKALHLHVNLIGVIVELGFSNGSDCSCTLKIVDPWYSGSGLPVKFVARTIRDLPRVESIGDIILLSRVKIVLINRKITALCNETTSSSFALFNGKHSVDSIPYQSSPKFLMREQDKNFLSNLREWMITYKFEDGS”, the protein production entry is “not failed”.

Consider “MEEITDGVNNMNLATDSQKKNRIQVSNTKKPLFFYVNLAKRYMQQYNDVELSALGMAIATVVTVTEILKNNGFAVEKKIMTSTVDIKDDARGRPVQKAKIEITLVKSEKFDELMAAANEEKEDAEAQVQN”, for which the protein production entry is reported as “not failed”.

For the sequence “MEEKRLSAKKGLPPGTLVYTGKYREDFEIEVMNYSIEEFREFKTTDVESVLPFRDSSTPTWINITGIHRTDVVQRVGEFFGIHPLVLEDILNVHQRPKVEFFENYVFIVLKMFTYDKNLHELESEQVSLILTKNCVLMFQEKIGDVFDPVRERIRYNRGIIRKKRADYLLYSLIDALVDDYFVLLEKIDDEIDVLEEEVLERPEKETVQRTHQLKRNLVELRKTIWPLREVLSSLYRDVPPLIEKETVPYFRDVYDHTIQIADTVETFRDIVSGLLDVYLSSVSNKTNEVMKVLTIIATIFMPLTFIAGIYGMNFEYMPELRWKWGYPVVLAVMGVIAVIMVVYFKKKKWL”, the protein production entry was “not failed”.

“MEEKVEELIDIYKQQIYSLCYKLAKTKEDAEDIFQETWIKVFSSRHQLSYVENYKKWITTICVRTFYDFYSKKKRWKDRVLDLFHKEDGGEIEFADDVNISEEFIQKVEAEMIREVIQLLNEKYKTVLVLYYYEQYSYKEMSEILNIPIGTVKYRLNYAKKQMREHLEGFVHEGR”: the protein production result is recorded as “failed”.

For the sequence “MEENKPVFSIITVCYCARDIIAKTAHSVLSQTYPNIEYIVVDGASPDNTAEVVRSLSSDIRLISEPDKGLYDAMNKGLRMALGDYVWFLNAGDLLPSDDLVEAIANGIKSSPMGLPDVLYGDTMLIDATGKEKGLRRLRPPFELQWRSFADGMLVCHQAFIAKRLIAPPYNMKYRFSADFDWCIRILQAARNIVNTEMILVHSLDDRGGITYKNHKASLKERFLIMKHYYGSRKSIMKHLSFFFRRKR”, the protein production result is on record as “failed”.
